Results: the DeepSol protein solubility set

Experiment: soluble on expression in E. coli; label from the status in PepcDB or PDB records

Soluble on expression in E. coli, not soluble:
MGSDKIHHHHHHMQVRTFKGPSAKTVLDMIKAEIGPEAVILSSRDCSGDGVTWCEMTVGVEREAAAAPRMGRDEPAAGDQTPPAGWDEWHREWDEIKGHIMALMKPALRLDELAPRQRVALEYLEREGVEDNVILALYRRLRGAPSLSVLEPLSAVVPVKGWGGADWPQKMQIVCGPSGVGKTSAVVRMALALRRQNAGVRICVLNADSQRGSGRMVLRHYAELCGMGYHEISGPADAAALLGELDGYDKILVDTPVPGRGATLRSLLEETGLDVLEQQVPAAVQLVMSPLYGDAQISFFLRQYECGLPCGLVWTKLDEACNFGALINVPAASGLPVTALSFGSGLKNSLASARGTMIWRLVFKKQLPGDVAAR, MGSDKIHHHHHHMQVTEQMKLDLARDGAFVARGLFSPEGLKRMREAFDYGIEHPSPQHGYIFKGTPDEHFNDYGNIANRDVHIATIKALVLDEFVASLWDSQHVWFKGEEIFIKKGGKAGRSPWHQDNSYTPVSGPQMLNIWTCFERIPRKNALEVVRGSHLGIQYNGNSYTDPGKPTKPLWLNTDWPDLPDIEAERAKDPNSWDVLSWDLELGDALVFHSGALHGGAPVSADCPDRHTLVYRFFGDKLFYRPLPTGGCNYPYDISALNDPSLMPGEPFRAAWCTQLR, MGSDKIHHHHHHMRAVSIVGLGWLGLTLARHLKNLGWKVKGTKRTHEGVEQMRLIRLEAYHLELTPDINADPDDLTALLSVDALVINIPPSQYFFHLQHYVQGVKNLVNEALLNGLQHIIFISSTSVFPDVSGEFDEQSQIVPQSEMSKALLEIEQWLFELKDVDCDIIRFGGLVGEDRHPVYSLAGKDELSAGNMPINLVHVDDCARAIQLLLETPSSQRLYHLVAPQHPTRAEYYSQIAEKLALEAPHFICSEQDPRRVILANKICRELSFVYQCPDPYLMLFERK, MGSDKIHHHHHHMRDQAESLRRMVDGVMEQGRGQGKVIAVVSGKGGVGKSNVSLNFALTLSRQNQKVALIDLDLGMGNLDILMGLSPSYHIIDMIKRELTIWDIAEQGPEGITYIAGGSGLSELVELNERQMERFFQQLESLGAIYDYIILDMGAGATAESLRFILSAHEIFVVTTPEPTSITDAYAMVKYICKEPIENPEILLIVNRAESKREGEQTAANFKRVVSHFLKKDIHSLGYLPQDSHVVKAVKAQAPFVLHAPQAKASMAMGKLVHTYLGHRVDRGAPSYQSFMKKIRKWFR, MGSDKIHHHHHHMREDFTNEIVTESLNEAGILVEKPSEIRRHFDDLQFDSRKVTKKNTLFVVKGAFKIEYLTASLLDKISGIVTSRKEKINIPNLPHWIVSNSQIALAVLSAEFFGHPEKKLKILGITGTKGKTSSTYMAYSLLDRLTNHQTAMFSTIDTFLGRGIKFKSELTTPESYELFSNMKKALDNGNKYLVMEVSSQSYLKNRVFGIHFKVGAFLNISPDHIGINEHPTFADYLAHKKMLAENSDVFVSNIDDAHGQEFIDHAKSFGAKTVSVSENKKADVNFHIKKADLDESIFYLTEKGNSQEFLLDIPGVFNIYNASVAIAMVREMGFKPEKAKKALAELQIPGRMVKIKTKSHGLIIVDYAHNGQAVTTLLTFLKSQHQGGKIIIVLGSPGDKGEDRRSQFGEVISKFVDVAYLTTDDPGTEDPHQINNQIRKAISNPNVELHEELDRSKAIQEAIKKANINDLVVLAAKGEDAFQKTNHVDVPYLGDKKVAEEFLAEIEKV, MGSDKIHHHHHHMRENKVVYGLIGYGGMGRWHTEILSNVPEAVIGGIYDIKEEKREEAKAKGFSVYETEEAMLADSDIDVVLIATPNDCHKPIAIRAMHAGKNVISEKPVTLSSADLLEMEKVAKETGKLFTVHQNRRWDDDFLIIKKLVEEQKLGHVFRIESRVHGSRGIPGDWRKEKVHGGGMVLDWGVHLLDQILYMYGDRKIETVYASLTNITNQEVDDGFTAILTFEGGTEVLVEVGTNNYISLPRWYVLGKDGTAVIRDWQLTGEIIRKTGKTEETVIPVKTAAGLTKTMAPRREDTIVKEDLPKVSGDIADFHRNVVAVIRDGAEPEIKLFQVMRVMKLMEAIFQAAETKQVIEFQDQV, MGSDKIHHHHHHMRESVVKLNEYTLRIFSLNTIVVGSGAAGLNAVDRVFSFGQKDVALLTDNLKWGTSRNTGSDKQTYYKLTLAGNVPDSVYELAETLFNGGSMDGDIALVEAALSARAFFRLVELGVPFPHSRYGEYVGYKTDHDPKQRATSAGPLTSYYMCEKLLEEIRRKGIKIFEGYQVIGILTDRNEEKTIGLIALDLNNIDDPEKRYVLFNVKNIIYATGGPAGMFYFHSVYPPVHFGATGIAFEAGVMGKNLTEWQFGIASKKFRWNLSGTYQQVIPRYVSTDENGNDEREFLEEYFPDPSTMLNAIFLKGYQWPFDVRKIKNYGSSLIDILVFYETVIKGRRVWLDFTRNPSWGSKNGELDFSLLGKEAYEYLKNSGALFGRPIDRLEKMNRPAIEVYLQHGIDLRKEYLEIGVCAQHNNGGLHGNIWWESNLKHFFPVGEVNGSHGVYRPGGSALNSGQVGGVRAAQYIVENYSGDPLCEEEILEEAKDQILKKIELGESFVKKITGKSNVSSILKEISERSMRSMGIVRSLEEAGKGKNEALRDFNNLIEKVELSSIRQLPFAFRLYDVLLTQYVYLSAVENYIESGGKSRGSYIVHDPTGELPVPNLPEMFRYSLAGESFNKKIQRVRCKENRCEFFWDPVKEIPREDTWFETIWNSFMRREVFR, MGSDKIHHHHHHMRFAPPNPLRIADRASGLNSLSVRSYNERLVLSLLLQNEATTRLEIGEKTGLSAQTISVIVRSLEQEGLVVRGEAQKGRVGPPTTPLMLNSEGAYSVGVSVGYHNTHIVVVDFIGNVQHHRVMPHKAADTFDAPEALALEIRLAVAGLSESRQARIAGVGLALPTPPIRSEPDHDVLHRYLEAEFGLPVFVQNDITAAAGGESLFGTARQLQDFLFFYLGARLHCRLVLNHQIYNGNSPLSYDVGVLALERRLPADSAMAEKLWGQDLSWPPLEATLADWQQACAENLIQLTQSLLQFIELRTVVLSSFVPAAICEALCRLVRQEIPSVNAVVGRTSAAPKAVGAASLPFSSRFMVN, MGSDKIHHHHHHMRFEEAGCHGEFIQADLTKLPFSEPKFDVIFSEGVLHHTDSTEKAIKYLTTLLIPGGHFLFYVYKTKAPIREFTDDYVRNQLINMDDSQAWNELRSLTLLGKILGDLNIEVEIPEPILLLGIPAGRINIQRLFYWYICKAFYNPEWTIDEMNHVNFDWYRPLNCHRHTPEEIMTWCNQAGLKIERMNVQEAGITVVAKKE, MGSDKIHHHHHHMRFSRIPPIFANVVRQTHYRNYANGVIKPREFNKVMVANRGEIAIRVFRALTELNKTSVAIYAEQDKNSMHRLKADEAYLVGKGLPPVAAYLTIDQIIETALKHNIDAIHPGYGFLSERSDFAAACQNAGIVFIGPSPDVMARMGDKVAARQAAIEAGVQVVPGTPGPITTADEAVEFAKQYGTPIILKAAYGGGGRGIRRVDKLEEVEEAFRRSYSEAQAAFGDGSLFVEKFVERPRHIEVQLLGDHHGNIVHLYERDCSVQRRHQKVVEIAPAPALPEGVREKILADALRLARHVGYQNAGTVEFLVDQKGNYYFIEVNARLQVEHTVTEEITGVDLVQAQIRIAEGKSLDDLKLSQETIQTTGSAIQCRVTTEDPAKGFQPDSGRIEVFRSGEGMGIRLDSASAFAGSVISPHYDSLMVKVIASARNHPNAAAKMIRALKKFRIRGVKTNIPFLLNVLRQPSFLDASVDTYFIDEHPELFQFKPSQNRAQKLLNYLGEVKVNGPTTPLATDLKPAVVSPPIPYIPAGAKPPTGLRDVLVQRGPTEFAKEVRSRPGCMITDTTFRDAHQSLLATRVRTYDMAAISPFVAQSFNGLFSLENWGGATFDVSMRFLHECPWERLQTLRKLIPNIPFQCLLRGANAMGYSNYPDNVIYKFCELAVKNGMDVFRVFDSLNYLPNLLVGMEAVGKAGGVVEAAIAYTGDVTDKSRDKYDLKYYLNLADQLVKAQAHILSIKDMAGVLKPEAAKLLIGALRDKFPDIPIHVHTHDTSGAGVAAMLECAKAGADVVDAAVDSMSGMTSQPSMGAIVASLQGTKHDTGLSLDDISKYSAYWESTRQLYAPFECATTMKSGNADVYKHEIPGGQYTNLQFQAFSLGLGPQFDEVKRMYREANLVLGDIIKVTPSSKIVGDLAQFMVQNNLTRETLVDRADDLSFPKSVVDFMQGNVGQPPYGFPEPLRTKVLRGKPKVDGRPGENAKPVDLDAVKVELEEKHGRTLSEEDVMSYSMFPTVFDEFETFRQQYGPVDKLPTRLFLTGLEIAEEVDVEIESGKTLAIQLLAEGKLNKRGEREVFFDLNGQMRSIFVVDKEASKEIVTRPRALPGVRGHIGAPMPGDVLELKIKEGDKVTKKQPLFVLSAMKMEMVIDSPIAGTVKAIHAPQGTKCSAGDLVVEVEP
